Data published in the domain aggregation screens of Martell et al. (2025).

Assay: soluble fraction after stress (log2 fold change); higher = more stays soluble; pooled small domains, quantitative proteomics
Settings: stress: 75 degC
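Note: 20 min heating vs room temperature control held 20 min.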

Sequence	soluble fraction (log2)
HMPTITIQRGIILSSTTKGFIDELSHSQIKNAIVERLGEHHVMIHESQLDAVIKYAQKKEAVINIYL	-0.874
HMPTMEQTYIGRTMIAEEDMGKNSKIKVSGIYWTAYNKGRVIKKGEEYKITGIEGNKLIVSSK	-0.393
HMPTNSDRLIGSDGVVSSKIDNLQGTGKVYISGLTWSARTIDGSEAEEGDIVTVEKIEGATLYVTKR	0.174
HMPTNVYSIIGKEGIVLESIDNLNSTGKVKVNGELWSAISDSNIEKGETIKVLSVNGVKLKVEKVN	-0.00656
HMPTPASGSSGYINATNVNFRTGPATSYKSISKLAKNTAVTILGTSGNWYKVTVGSLGKNGYVFATYVTVS	-2.23
HMPTPLTPREHEIANLIAQGLSNREIADELVISPATAARHVANILAKLGFSSRTQVASWATRHD	-0.277
HMPTSLPGIDIDEKNIVSSTGALSFKKVPKKLAIIGGGYIGLEMGSVWSRLGSSVTVIEYLNFITPG	0.365
HMPTTLEGIEKYLSSGLIKGIGPHLAGKLVEAFGTRVFEVVEHQPERLRTVGGIGRTRAESITSAWRDQ	-0.146
HMPTTNIRAFRLREADPESVKEALSMVMPKTSIYVDARTKSVLVVGLLDELARAAEIVALIDQP	-2.8
HMPVFSAEQVAKAEADVQKVANKVQEAGADVEKLTTIHNWLLAREKYMPPDLFSTANQIIATAFQKAG	0.525
HMPVGSIGERLKALRLKAGLTQEEVGQHVHISKQTLYKYENGIVTNIPADKIELLATIYSVTPAYIMGWA	-2.27
HMPVQPMDPSIEHISALTGKQFQAFPGQDHRAHMTAHLNFMSTNIVRNNPAVMGAIQKNILEHISLMAQEQ	0.322
HMPVSLHEQIQQARIRAEQNVEGISLLLQVNPKYYEQIEAGDVIPDQDLLKRISSLFGWNYHEMLHREKSS	-0.781
HMPVSTLLGDNLRRLRTAKGYTQEAVADAARISVAAYRNYETGRAIPKVNTLLAIARALGVSLNDLVTE	-0.605
HMPVTAQFDFSKVLAGRTLKDGEFSFVLKDKNGTVLQTKTNDASGKVAFDALIYKNNEVGEHKYTVEEVI	0.237
HMPVVKIPFILTEGPSSITKVIEIDADEILELKDVFQEDDKLWSINQIEMNDGRYVKHSDASLIVRASALR	0.233
HMPYHSEAWHKVMKSHWLTLSREEAYMHEGRTGASTINIVFQRELGREATQEEIESIYQEKSVLFNSYP	-1.52
HMPYLVNGFILEVQSDDNNPVGTLKRRYAVAKNKQGVILLEGEKSFSSNDQILINELKFYIQSNDLKA	-2.56
HMPYSKIALQISHLLKSHGVPLSNKQIYEKLINDFQLSINYSNLTNNILPRMNSDSSINVEKVTRGYWQY	-0.931
HMQADKYKSYTATDFLKDKDFLRWQLFNGEEDMLFWGRVIEEYPALRSRVEEGIVLYKDNIR	-0.711
HMQADTATITGNGVNMRSGPGTNYQIIDTIPKGTVAEVLSQQDGWVKIYSARISGWVSASYVEIKQT	-2.5
HMQAGNAVEQYPTIGRLEEVTLGRSQPGAPIGERLSTLETVVFKRNFNDDSLFDRTERLKKTILGG	-0.104
HMQAKQVAIPDVANYSVTDAIKKLQDAGFIVSDEQREEANETVSEGKVSRTSPAAGSIRKEGTEIILYKSL	0.361
HMQALDETTVSRIRQKAAARNLLLKVLAGQLGVARPTLSNVLARREAPSAALAARIRAFLDSP	-1.45
HMQALTLVGQDAKDAKAALDAVDIQPAKTETDRYIYVLTEQQAQELGRTVDALYGVEGSLTLILEV	0.253
HMQAQQYYMLLMNKATSALKIEALGANSNKAHQSFGTKTAGGSAVYWGILFNSNGKIYKIVG	-3.06

Sequence	soluble fraction (log2)
HMQASIPQSQKDALAKELQALPPHGRNRVLSTFRQQFNISSEKISEFITTPEHLSFIRSKIAEVESDS	0.267
HMQDENAVTYLLEIKNADANDIASVLKTLKSPDADVVVYKTLNMIIFTGQGSEINGLVKVARQLDRK	-2.04
HMQDGVNLENIEQKLSTLGVGKAQYFLQNVGGNKFNAYMALNTDGVEGYQKGSDTLIEIKNVE	0.215
HMQDKIWVVDETQLYPKLIEAMSEGKAVIHDGVAYWAEGSGKTGVIQHLPFKETTVQNVEEAIKLAQ	0.0953
HMQDKLLRKKEVLEMVSITNSTMYRMIGSGQFPRPIRLDNANINSGVRWKLSEINTFIEQRF	-0.513
HMQDLAKRWVEEFGDLLYKYTLPRVSDSGIAKDLVQETFLAAWRNIDNFKGEASEKNWLFTILKNKIIDH	-0.382
HMQDLTAQQQAILSFLKEHPKATRKEISENIPNITEDNIRYNLSQLQELGFVKSMGDSFIRIAI	0.534
HMQDNDLKNQIENVLRTYPDNVFTVEKIADVLRSHGSAAFKLIVQELASLERDKVAVVTEDGKFQLNPD	0.261
HMQDPTAVISRVLEERKHQPGALLPILHGIQDALGYVPREAVAQIAQALNLSRAEIHGVVSFYHHFR	-0.59
HMQDPVWVDWLGENDWFQKDPKRRGLANGYSEILRAEQPELVGRPFLDEVTRRVQADFPELFG	-0.944
HMQDTRSHARKMLAAIEALLEGRSGSDIQAYTIHNRSITKMTVPELVKWRSYYQQQVRSEDAAASLA	-0.61
HMQDTYLYPVQHNGKVRLQVELPAKGLPEDLVRLALAHPKVVEWLNGRIPTKTIAVPGRIINMVLPNQ	-0.638
HMQDVWEPFLAKGYVFADGMLTKLIHKRGDVYKTQEIGSDKIIYVIKDGDTFAHGKTVKAAMLDLAFKKS	-1.5
HMQDYISAEEAKSAALSASQVDSAGAAFSAAELGEKNGIPYYEVAFTADGLEYRYAIDAQTGTVIESSSSG	0.156
HMQEDKVRKLTEMGFAEDQAREALRKHDWDETMALNSL	0.262
HMQEDSNISFVKIHVDADSGMAHKKLSKLSLPTGFLIVVIIRGEENIIPNGETEVLPGDLLVAAAREFEN	-1.31
HMQEEELYPRLEEVINQHRGKGEDLIMVLHKAQNLFGYLPRRAQEMVAEGLNVSLNEVYGVITFYNFFST	0.194
HMQEERDISFIKIHLEPGHPWRGRALRELMPLKDLLIVMVVRGEDTIVPNGDTRLEEGDLLVLAAYPFEE	-0.834
HMQEHAHLWRLMEDNRSFKADYIAFENGIVLLQNLSSGKISQYPITDFSIEDQLLILKRHELTAHINAN	-3.3
HMQEIKPEPISDGRVWKEGMWATTPLGIEGQLLSDPDEKGMVQLGYGNMRININIQDLDPSR	-0.104
HMQEISQEEALATVLKDLSLTEADLKDLQITREEDKYKILFSKGQTAYDVLVSAKDGQLLQSKQETI	-0.313
HMQEKQIIDGREFYIHQVERGITLYSIAKQYNVKVADIQAENPFLEAGLQPGQTLKIPLDKVETVQEIK	-0.218
HMQEPIAVPDFINKSAVDVLVNPVFTQNFKLVSEDVYDDKVPEGYIVGQSVKSDTLVQPGTEIVIYV	0.224
HMQEPNYQPLMQNIKSQDLEEVTRLLSLNDVKFKIDHRTGLLLVESSRVYEAKMKLAATGITD	-1.07
HMQEPVHFTRRERQVLSLILSGQATAEIAKTLGIANATVTTYKKSLYSKSGTNSLSRLLIWAMVRR	-0.463
HMQEPVYRPVFPGMTDADRQSAMEALKEGGFSPRLNRQTGQLEVDASGYHEAKIYLASQGIPAE	0.0608

Sequence	soluble fraction (log2)
HMQERNYIVRRGDTLWDLAKTYYGSGTKYTVIYDANRDNIEAEAKRRGKQSSNGGYWIYPGTELTI	-0.348
HMQERTVVKGVVVQVSRDEAYVDIGYKQEIPVSKRDLAVPAPDDARDVVKVGDEIDVYIKSLGGDNGG	0.109
HMQESTPGEGYKWREDVLLRVMSQNGIDESLRDEFVRHAVNYDIDDNMYLKKAEIESAAEAWVLENS	0.172
HMQESVTVSAQALRRLLEKGDGDAALLYLALLRHHGTIQPRALAGELRWERPRIEAAEEALRQMGLIA	-0.48
HMQETMTNDEVISLTKAGLSSSIIIGKIRSSATNFDLSTDSLIKLKQAGVSDETVAAMLEAKS	0.0249
HMQGAARGMLFAQAQRWMTKFRIDPQQADRITQAALDPAQTDAILREVRRGYGPSAERALRGIIRRARRA	-1.94
HMQGEAMQETVKKLDAFLQDNSVSMSALARALGVSPSLISQFRSGSYKGDSQAIAAKINSYIDNHNKKSK	-0.0127
HMQGEKDDLWREVLDNPDAWWDNRERKNAPGGNPRYPDFKHKDSQTPLWIESRDTPQWAIDALL	0.259
HMQGNGKVATELLKDIIASDNLYINAMRMLVMHYNSKGTNQVEMVKLLHNILDLVPDDEYANEILKSAKKA	-0.0872
HMQGPDPYAVLGIDRHADERAIKRAYRKLISEHHPDRLGDLPEDMRKRAESRASEINAAYDRIKEARGF	0.0522
HMQGQVLQETARKARSQLDSEIPGFNDALYQNLIKSSENYGYKAEEVAQWVDPRAIKVLNDAYQFQQLKAG	-0.172
HMQGTTTELLIQKSALYEELNDPEKALNAMFDAFEMDSLNVNVLHRIVSLLLDKEENEKAILYNQLIIDH	0.0862
HMQHQSGLKSGEFEAISQQLQALLKENPLSLQEIKDKMQVTENHLIKVVSYLVSEEIIRQENGYLK	-0.976
HMQIAGLDDIDNRIIDLLLKNGRASYSEIGAAVGLSRTAAKNRIRALEASGIIRGYQAILDPQA	-0.708
HMQIDDSVELSAIVEKLLAANPEQVEQLKNGKTKVLGYFVGLAMKETQGRANPQKVNELIQTHL	-0.519
HMQIDRLFDIVYTLLRKKSATAAELAERFGVSKRTILRDIETLSVAGIPILTSPGKGGGVSISSSF	-0.892
HMQIIETTVGRVLFNEKVPEAAGYINEVLTKKSLRDIIHGILKKTSVPETAAFLDEIKSLGYNFAF	0.0925
HMQIIEVPYSEFLKKLESGQISEVSRDSYQIVFTDRSQPPIIYKTGLMEDPGLVDKMQEAGVTFTSP	0.256
HMQIKNVDYGTFLDMLDEKNVKEVEIEDEQIVFTDNADPTGYYTTGRMEDPDLVDRLHNSGATFSAI	0.134
HMQILLASHAELAKGILSAVELIAGTQQNLKAYSAYTEAVDVHFKDQMLQDLNKMDPEDEVIL	0.137
HMQINLSEWVLAAREYAGPEMTQEKLAEHLGRTKANVSAMENGRSKPSFEQMMEIHRVTGYPLPYQ	-0.303
HMQISDAGALLDAVRRVLAENPAQVEQFRAGKEKVMGFLVGQVMRATGGKANPQMLNDVLREELS	-0.196
HMQISDEGELSGIVRKIIDANPQSVADYKAGKKKAIGFLVGQIMIETKGRANPASVNELLIKKLE	-0.434
HMQISDNTILEDAVSRIIDENPKSVSDYFQGKEAVVGFFIGQIMRETKGTANPKIAREIVISHLEAI	-0.576
HMQISGIHLYERRITKDDEWAERKLSEISLAGSLVILILRNEHVVIPNGETVLKENDLLYISD	-3.66
